Measured values as given in patent publication US20200340031A1 (YALE UNIVERSITY, published 2020).

Assays:
[1] = target: T1, Recombinant human renalase-1 expressed and secreted by pCDNA3-renalase-1-transfected 293T cells (human, UniProt Q5VYX0 18-342, limits assumed); assay: Western blot; lane 293 s/n taken as supernatant of renalase-expressing 293 cells, the text does not explain the lane
T1 construct: whole renalase-1 entry named; Present in cell culture supernatant; also called mammalian-expressed recombinant human renalase
T1 sequence (Q5VYX0 18-342 limits assumed): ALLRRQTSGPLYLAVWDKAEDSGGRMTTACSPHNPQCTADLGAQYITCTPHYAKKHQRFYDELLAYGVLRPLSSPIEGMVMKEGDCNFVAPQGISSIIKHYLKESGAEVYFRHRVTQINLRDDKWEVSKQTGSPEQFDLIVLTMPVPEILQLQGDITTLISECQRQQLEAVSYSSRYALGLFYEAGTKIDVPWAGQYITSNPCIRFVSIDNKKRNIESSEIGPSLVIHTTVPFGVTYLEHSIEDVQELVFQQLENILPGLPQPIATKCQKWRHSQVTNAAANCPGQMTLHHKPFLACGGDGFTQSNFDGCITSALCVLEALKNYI

[2] = target: T1, Recombinant human renalase-1 expressed …; assay: Immunoprecipitation from 293T supernatant with Protein G Sepharose, Western blot with biotinylated Ren 28-4
Experimental: All samples were incubated for 2 hours at 4° C. on a shaker. Immunoprecipitates were then washed 3 times with 1 mL RIPA buffer. 50 ul SDS-PAGE sample buffer (Fermentas) was added directly to Protein G-antibody immunoprecipitates and samples were heated to 95° C. for 5 minutes before running on SDS-PAGE. Actigel-antibody immunoprecipitates were washed a further 2 times in PBS prior to addition of 50 ul 0.1 M Glycine, pH 2.5. Samples were then agitated at room temperature for 10 minutes. Eluted proteins were recovered after centrifugation and resolved by SDS-PAGE. In all experiments 20 μL immunoprecipitate input material and 0.5 ng recombinant renalase positive control (RV11) were also loaded onto the gel.
In the example where a Protein G-mediated immunoprecipitation was used the western primary antibody was biotinylated-Ren 28-4 followed with a neutravidin-HRP secondary probe. In all cases where no immunoprecipitating antibody was added, no renalase was detected on the Western blot. All of the 1D and 1F antibodies (monoclonal and polyclonal) were able to immunoprecipitate bacterially- or mammalian-expressed recombinant human renalase.

[3] = target: T2, RPC1 reference standard peptide; assay: standard curve in the sandwich ELISA with m42-RNLS capture and electro-chemiluminescence detection
T2 construct: Synthetic: m42 peptide antigen linked to the m28 peptide antigen
T2 sequence (peptide, as listed by the source): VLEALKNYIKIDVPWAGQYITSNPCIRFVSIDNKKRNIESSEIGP
Experimental: (§1) In this example, human plasma samples were pretreated as follows: To 40 μL of plasma, 20 μL of 1N Citric acid was added and the samples were incubated on a shaker for 15 min at RT. The reaction solution was neutralized by adding 40 μL of 1M Na₂HPO₄. The samples were then stored on ice and further diluted with Diluent 100 to obtain readings in linear range. Assay protocol: Renalase levels in plasma was measured using the prototype assay on the Mesoscale platform (Meso Scale diagnostics, Gaithersburg, Md., USA) which employs proprietary electro-chemiluminescence detection methods combined with patterned arrays. Standard 96-well assay plate from Mesoscale Diagnostics were coated with 40 μL of Ren 1F 42-7 (m42-RNLS) capture antibody (2 μg/mL) and incubated for 2 hours on a shaker at room temperature. Following this, 150 μL of 3% Blocker A was added and the plate incubated on a shaker for 1 hour at room temperature. The plate was then washed with 150 μL of PBST (3 times); diluted acid activated samples and calibrator was added and the plate incubated for 2 hrs at RT on a shaker. […] The plate was washed and 2× read buffer was added and the plate imaged on SQ120 (Meso Scale Discovery). The raw data was analyzed using the Discovery Workbench software. […]

[4] = target: T3, RPC2 reference standard peptide; assay: as above
T3 construct: Synthetic: m42 peptide antigen linked to the m28 peptide antigen
T3 sequence (peptide, as listed by the source): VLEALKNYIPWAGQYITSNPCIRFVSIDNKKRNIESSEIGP
Experimental: as §1

| Binder | binding result [1] | binding result [2] | binding result [3] | binding result [4] |
| --- | --- | --- | --- | --- |
| anti-1D epitope monoclonal antibody 1D-37-10 (antibody, V domains shown, Rabbit monoclonal; also called Ren 1D 37-10) VH: QSVEESGGRLVTPGGSLTLTCTVSGFSLSDYAIIWVRQAPGKGLEYIAIIGSSGDTFYATWAKGRFTISKTSTTVDLKMTSLTAADTATYFCAPRYAGTTDYHDAFDPWGPGTLVTVSS VL: EVVMTQTPASMEAPMGGTVTIKCQASQNIYNYLSWYQQKPGQPPKLLVYKASTLTSGVPSRFKGSGSGTQFTLTISDLECADAATYYCQINYSIYNHYNIIFGGGTEVVVKG | binds | – | – | – |
| anti-1D epitope monoclonal antibody 1D-28-4 (antibody, V domains shown, Rabbit monoclonal from hybridoma, purified on Protein A. Used biotinylated in some assays; also called Ren 1D 28-4; Ren1D 28-4) VH: QSVEESGGRLVTPGTPLTLTCTVSGFSLSSFAVGWVRQAPGKGLEYIGIISSVGITRYASWAAGRFTISKTSTTVDLKITSPTTEDTATYFCARYGYSGDVNRLDLWGQGTLVTVSS VL: AQVLTQTASPVSAAVGGTVTINCQASQSVYDNNNLAWYQQKPGQPPKQLIYGASTLASGVSSRFKGSGSGTQFTLTISGVQCDDAATYYCLGEFSCSSADCFAFGGGTEVVVKG | binds | – | – | – |
| anti-1F epitope monoclonal antibody 1F-26-1 (antibody, V domains shown, Rabbit monoclonal; Used biotinylated as detection antibody in the sandwich ELISAs; also called Ren 1F 26-1) VH: QSVKESEGGLFKPTDTLTLTCTVSGFSLSSYGVTWVRQAPGNGLEWIGLIGDRGTTFYASWAKSRSTITRNTNLNTVTLKMTRLTAADTATYFCARGSGYGARIWGPGTLVTVSS VL: AQVLTQTPSPVSAAVGGTVTINCQSSQSVYKNNYLAWYQQKPGQPPKLLIYETSKLASGVPPRFSGSGSGTQFTLTISSVQCDDAATYYCQGGYSGVDFMAFGGGTEVVVKG | – | binds | – | – |
| anti-1F epitope monoclonal antibody 1F-42-7 (antibody, V domains shown, Rabbit monoclonal; also called Ren 1F 42-7; m42-RNLS) VH: QSVKESEGGLFKPTDTLTLTCTVSGFSLTTYGVTWVRQAPGNGLEWIGLIGDRGTTYYASWVNGRSTITRNTNLNTVTLKMTRLTAADTATYFCARGSGYGARIWGPGTLVTVAS VL: AQVLTQTPSPMSAALGGTVTINCQSSQTVYNNNYLSWYQQKPGQPPKLLIYETSKLSSGVPPRFSGSGSGTQFTLTISSVQCDDAATYYCQGGYSGVDFMAFGGGTEVVVKG | – | binds | binds | binds |
